According to patent US20080260641A1 (Genmab, published 2008):

B1: 11B8 (antibody, V domains shown)
VH: EVQLVQSGGGLVHPGGSLRLSCTGSGFTFSYHAMHWVRQAPGKGLEWVSIIGTGGVTYYADSVKGRFTISRDNVKNSLYLQMNSLRAEDMAVYYCARDYYGAGSFYDGLYGMDVWGQGTTVTVSS
VL: EIVLTQSPATLSLSPGERATLSCRASQSVSSYLAWYQQKPGQAPRLLIYDASNRATGIPARFSGSGSGTDFTLTISSLEPEDFAVYYCQQRSDWPLTFGGGTKVEIK
notes: also called human recombinant monoclonal IgG1,κ anti-CD20 antibody 11B8

Tests used:
human CD20 [1] = target: T1, human CD20 (human, UniProt P11836 1-297); assay: flow cytometry on CD20-positive NS/0 cells, control antibody
T1 construct: whole, on cells; also called WT CD20; wild-type (WT) CD20
T1 sequence (looked up): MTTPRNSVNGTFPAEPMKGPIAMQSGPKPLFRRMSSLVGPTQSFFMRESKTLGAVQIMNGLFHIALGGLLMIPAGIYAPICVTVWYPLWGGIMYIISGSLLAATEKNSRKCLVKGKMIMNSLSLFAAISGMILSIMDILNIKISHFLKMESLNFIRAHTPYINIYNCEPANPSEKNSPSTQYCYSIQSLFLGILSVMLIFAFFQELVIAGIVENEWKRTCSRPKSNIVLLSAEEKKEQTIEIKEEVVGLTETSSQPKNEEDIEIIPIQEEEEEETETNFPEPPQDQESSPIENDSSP

human CD20 [2] = target: T1, human CD20; assay: flow cytometry blocking assay on CD20-NS/0 cells: pre-incubation with the control, then competitor rituximab-FITC 10 µg/ml
human CD20 [3] = target: T1, human CD20; assay: flow cytometry, FITC-conjugated antibodies on Daudi and Raji cells

Row | Molecule | Binding CD20-NS/0 (mean fluorescence) (mean fluorescence) (human CD20 [1]) | Blocking of rituximab (signal of rituximab-FITC left after pre-incubation) (human CD20 [2]) | binding result (human CD20 [3])
1 | human IgG1 control antibody | 14 | 179 | 
2 | human IgM control antibody | 9 | 182 | 
3 | B1 |  |  | binds
